Measured values: publication PMC11267573, “A Robust α-L-Fucosidase from Prevotella nigrescens for Glycoengineering Therapeutic Antibodies” (ACS Chemical Biology, 2024)

T1: MBP-AlfC (Lacticaseibacillus paracasei, UniProt A0A422MHI3)
T1 construct: gene BN194_28780; pMAL-c4X, E. coli; codon-optimized synthetic gene
T1 sequence (A0A422MHI3 1-344): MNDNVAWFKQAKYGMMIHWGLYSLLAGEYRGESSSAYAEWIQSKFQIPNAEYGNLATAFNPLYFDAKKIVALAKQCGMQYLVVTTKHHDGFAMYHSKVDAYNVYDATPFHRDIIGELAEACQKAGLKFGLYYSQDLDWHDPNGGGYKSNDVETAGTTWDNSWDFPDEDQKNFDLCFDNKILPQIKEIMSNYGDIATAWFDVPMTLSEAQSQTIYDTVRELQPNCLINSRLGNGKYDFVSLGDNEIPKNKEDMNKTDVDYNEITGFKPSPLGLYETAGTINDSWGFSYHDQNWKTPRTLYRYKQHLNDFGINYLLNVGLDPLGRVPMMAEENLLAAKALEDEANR

B1: Δ20PnfucA (Prevotella nigrescens CC14M) (protein)
chain: QTNSQQQESNNRATTTESVPQKYIPTAENLAARKRFEGFRFGIFLHWGIYSTFAQGEWYLNNKINKDEYAKAASAFYPSYFDADAWISAIKASGAKYITFTSRHHDSFSMFKTKESNYNIVDATPFKRDVLKELANACHKQNIDLHIYYSILDWIREDYPIGRTGLYTGRKLKPNYGTYFNFMKGQVSELLHNYGKVGAIWLDGYWDHDSDSIPFDWRMEEFYRYIHSIQPACLIGNNHHIAPIDGEDFQMFERDLPGENKAGLSGQAISRLPLEACQTMNGMWGYKVSDINYKSTSQLIELLVRSAAKGSNLLLNIGPQPNGELPALALDRLQGIGKWMQQYGETIYETMAGDVAEADWGVSTSKGKKTYLHVLEQDAKTISCALSVKPKRVIDFASRQPLSFHYDKKTKTLTTHIGSHRNVVDYIIEIEK
notes: 20 N-terminal residues (signal peptide) removed; apparent mass ~52 kDa; codon-optimized synthetic gene

Assays:
Experiment in all cases: p-nitrophenol release, initial-rate kinetics
MBP-AlfC = target: T1, MBP-AlfC; type: biochemical; settings: assay details in supplement; MBP fusion
Source text: p-nitrophenol release, initial-rate kinetics on MBP-AlfC

MBP-PnfucA = target: T2, MBP-PnfucA (Prevotella nigrescens, UniProt V8CPU0); type: biochemical; settings: assay details in supplement; MBP fusion
T2 construct: gene HMPREF1173_00896; pMAL-c4X, E. coli; poor purity
Source text: p-nitrophenol release, initial-rate kinetics on MBP-PnfucA

[1] = substrate: C[C@@H]1O[C@@H](Oc2ccc([N+](=O)[O-])cc2)[C@@H](O)[C@H](O)[C@@H]1O; type: biochemical, Prevotella nigrescens; settings: assay details in supplement
Source text: p-nitrophenol release, initial-rate kinetics on Δ20PnfucA

Molecule | Km (MBP-AlfC) [µM] | Km (MBP-PnfucA) [µM] | Km [1] [µM] | kcat [1] [s⁻¹] | kcat/Km [1] [M⁻¹ s⁻¹]
C[C@@H]1O[C@@H](Oc2ccc([N+](=O)[O-])cc2)[C@@H](O)[C@H](O)[C@@H]1O [pNP-Fuc] | 620 ± 60 | 250 ± 20 |  |  | 
B1 |  |  | 560 ± 50 | 66.5 ± 2 | 119000
